Biological target: the molecule itself
Assay: western blot of cell extracts; extracts of TNBC (MDA-MB-231) cells incubated in TPBC-medium, TNBC-medium or S-medium; detected with a polyclonal antibody to S100A4; gel conditions not stated

B1: S100A4 protein (natural protein)
chain: not shown
notes: S100A4 (Mts1), endogenous in the human triple-negative breast carcinoma cell line MDA-MB-231; Monomeric, dimeric and tetrameric forms were told apart as bands on a western blot of cell extracts; also called Mts1; source: endogenous, MDA-MB-231 (TNBC) cell extract
**Q.** B1 was tested. Which “stoichiometry N” value did it give?
**A.** The value was 4.

From PMC9116394, “Triple-negative and triple-positive breast cancer cells reciprocally control their growth and migration via the S100A4 pathway” (Cell Adhesion & Migration, 2022)
